The text below walks through data of paper PMC9912195, “The 3D‐structure, kinetics and dynamics of the E. coli nitroreductase NfsA with NADP ^+ provide glimpses of its catalytic mechanism” (Febs Letters, 2022).

Broadly, the Km is the substrate concentration at which the rate is half of its maximum. In general, Ki refers to a measure of affinity in units of concentration, obtained from inhibition or displacement. As a reminder, the kcat is the maximal rate divided by the concentration of active sites. A word on the kcat/Km: it is the turnover number divided by the Michaelis constant.

The target in series [1] is T1, NfsA (Escherichia coli, UniProt P17117).
T1 construct: full-length, untagged, from pET24 derivative pPS1341A1 in E. coli BL21(lambda DE3); 240 amino acids
Kind of series: stopped-flow re-oxidation of reduced enzyme, […] nm, anaerobic. The series is classed as biochemical. As to conditions: dithionite-reduced enzyme.

In series [2] the target is T1, NfsA. The series can be described thus: steady-state kinetics. The conditions noted are these: co-substrate NADPH. The series is classed as biochemical.
Series [3] addresses T1, NfsA. Kind of series: steady-state inhibition of nitrofurazone reduction, global ping-pong fit, […] nm. Type of series: biochemical.
Series [4] deals with NC(=O)C1=CN([C@@H]2O[C@H](COP(=O)(O)OP(=O)(O)OC[C@H]3O[C@@H](n4cnc5c(N)ncnc54)[C@H](OP(=O)(O)O)[C@@H]3O)[C@@H](O)[C@H]2O)C=CC1. Kind of series: purified protein. The series is classed as biochemical, Escherichia coli. As to conditions: 100 μM nitrofurazone, 10 mM Tris pH 7.0, 4.5% DMSO, 25 °C.
Series [5] has as its system NC(=O)N/N=C/c1ccc([N+](=O)[O-])o1. The series can be described thus: purified protein. The series is classed as biochemical, Escherichia coli. The conditions noted are these: co-substrate NADPH, 10 mM Tris pH 7.0, 50 mM NaCl, 4.5% DMSO, 25 °C.
Series [6] relates to NC(=O)C1=CN([C@@H]2O[C@H](COP(=O)(O)OP(=O)(O)OC[C@H]3O[C@@H](n4cnc5c(N)ncnc54)[C@H](O)[C@@H]3O)[C@@H](O)[C@H]2O)C=CC1. The series can be described thus: purified protein. The series is classed as biochemical, Escherichia coli. The conditions noted are these: 100 μM nitrofurazone, 10 mM Tris pH 7.0, 4.5% DMSO, 25 °C.

T1 sequence (P17117 whole entry): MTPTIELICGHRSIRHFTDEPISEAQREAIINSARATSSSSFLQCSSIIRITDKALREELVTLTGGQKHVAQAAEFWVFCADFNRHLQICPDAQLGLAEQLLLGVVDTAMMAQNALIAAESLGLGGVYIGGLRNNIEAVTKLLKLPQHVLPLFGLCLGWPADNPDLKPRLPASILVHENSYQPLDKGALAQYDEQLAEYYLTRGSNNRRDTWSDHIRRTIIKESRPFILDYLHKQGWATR

Regarding `CC1=CC(=O)c2ccccc2C1=O` [menadione], at NfsA [1] (10 mM Tris pH 7, 25 °C, unreliable (extrapolated, highest concentration 100 μM)), the K d was 330 ± 115 µM. Besides, the Km at NfsA [2] came to 11 ± 2 µM.
For `NC(=O)c1cc(N2CC2)c([N+](=O)[O-])cc1[N+](=O)[O-]` [CB1954, 5 aziridin‐1‐yl‐2,4 dinitrobenzamide], the K d on NfsA [1] (10 mM Tris pH 7, 5% DMSO, 25 °C, unreliable (extrapolated beyond highest concentration 500 μM)) is 660 ± 90 µM.
`NC(=O)c1ccc[n+]([C@@H]2O[C@H](COP(=O)(O)OP(=O)(O)OC[C@H]3O[C@@H](n4cnc5c(N)ncnc54)[C@H](OP(=O)(O)O)[C@@H]3O)[C@@H](O)[C@H]2O)c1` [NADP^+]: the affinity at NfsA [3], expressed as Ki, was 250 ± 70 µM.
For NfsA (Escherichia coli K-12), in series [4], the Michaelis-Menten constant (Km) came to 19 ± 4 µM, the turnover number (kcat) came to 24 ± 1 s⁻¹ and the catalytic efficiency (kcat/Km) was determined as 1.2e+06 ± 200000 M⁻¹ s⁻¹. In addition, in series [5], the Michaelis-Menten constant (Km) worked out at 12 µM and the kcat stood at 23.1 s⁻¹. For the same compound, in series [6], the Km came to 700 ± 100 µM, the kcat was found to be 20 ± 1 s⁻¹ and the catalytic efficiency (kcat/Km) turned out to be 27000 ± 3000 M⁻¹ s⁻¹.
